# Target: autologous SHIV_(1157ipd3N4) gp120 monomer (SHIV_(1157ipd3N4))
# Test: BLI
binder,measurement,value
"unmutated common ancestor (UCA) of the J038 lineage (antibody, V domains shown) VH: QLQLQESGPGLVKPSETLSLTCAVSGGSISSNYWSWIRQPPGKGLEWIGRISGSGGSTDYNPSLKSRVTISTDTSKNQFSLKLSSVTAADTAVYYCAREVAEDDYGYYQPYFDYWGQGVLVTVSS VL: DIQMTQSPSSLSASVGDRVTITCRASQGISSYLAWYQQKPGKAPKLLIYAASSLQSGVPSRFSGSGSGTDFTLTISSLQPEDFATYYCQQYNSLPLTFGGGTKVEIK",Kd,37.8 nM
same,koff,0.0023 s⁻¹
